Results: patent US20070031511A1 (published 2007)
[ ]: non-standard residue; d: D form. pGlu = O=C1CC[C@@H](C(=O)O)N1

Tests used:
[1] = target: Ggly receptor on IMGE-5 cells; assay: cell-based or functional assay
[2] = target: T1, human CCK-2 receptor (human, UniProt P32239 1-447); assay: cell-based or functional assay
T1 sequence (looked up): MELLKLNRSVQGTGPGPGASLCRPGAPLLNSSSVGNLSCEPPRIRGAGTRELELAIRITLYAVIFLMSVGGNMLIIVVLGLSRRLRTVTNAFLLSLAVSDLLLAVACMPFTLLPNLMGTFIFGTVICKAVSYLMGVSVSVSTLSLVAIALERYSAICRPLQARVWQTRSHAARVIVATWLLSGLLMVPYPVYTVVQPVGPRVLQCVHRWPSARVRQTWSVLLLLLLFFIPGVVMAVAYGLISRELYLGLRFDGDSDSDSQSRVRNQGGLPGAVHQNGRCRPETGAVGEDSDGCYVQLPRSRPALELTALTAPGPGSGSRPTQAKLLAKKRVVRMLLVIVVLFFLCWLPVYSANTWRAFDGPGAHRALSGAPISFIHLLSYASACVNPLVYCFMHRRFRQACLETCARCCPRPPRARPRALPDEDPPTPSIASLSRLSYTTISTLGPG

[3] = target: T1, human CCK-2 receptor; assay: fitted [125I]-BH-CCK8 binding without competitor, displacement curve, Jurkat cells
Description: (§1) Non-specific binding was evaluated with […] of unlabelled CCK₈. Incubation was stopped by adding 2 ml of ice-cold PBS containing 2% bovine serum albumin. After centrifugation, supernatants were removed and the radioactivity bound to the cell membranes was measured in a γ-counter (LKB, Wallac, Finland).
(§2) Values of the % maximum binding in the absence of competitor and of the IC₅₀ were obtained from the data presented in FIG. 21 by least squares fitting with the program Sigmaplot. Values from the indicated number of independent experiments were combined to obtain the mean values (±S.E.) presented above. Data were analyzed by one-way analysis of variance.

[4] = target: T1, human CCK-2 receptor; assay: fitted [125I]-BH-CCK8 binding without competitor, displacement curve, CCK-2 receptor on transfected COS-7 cells
Description: as §2

[5] = target: T1, human CCK-2 receptor; assay: displacement of [125I]-BH-CCK8, Jurkat cells; reference Gamide
[6] = target: T1, human CCK-2 receptor; assay: displacement of [125I]-BH-CCK8, CCK-2 receptor on Jurkat cells
Description: as §1, §2

[7] = target: T1, human CCK-2 receptor; assay: displacement of [125I]-BH-CCK8, transfected COS-7 cells; reference Gamide
[8] = target: T1, human CCK-2 receptor; assay: single experiment of FIG. 21, displacement of [125I]-BH-CCK8, transfected COS-7 cells
Description: The lines of best fit shown in FIG. 21 were obtained by nonlinear regression to a single site model with the program Sigmaplot.

[9] = target: T1, human CCK-2 receptor; assay: displacement of [125I]-BH-CCK8, CCK-2 receptor on transiently transfected COS-7 cells
Description: as §2

**Q.** Which “ED50 (nM), proliferation of IMGE cells, thymidine uptake” value (“ED50 (nM), proliferation of IMGE cells” below) [1] does the source give for LEEEEEAYG [nonapeptide LE5AYG] here?
**A.** The value was 1 nM.

**Q.** With LEEEEEA [heptapeptide LE5A] as the binder, how does the “ED50 (nM), proliferation of IMGE cells” value [1] read?
**A.** The value was 2.4 nM.

B1: amidated gastrin17 (Gamide) (peptide)
peptide: XGPWLEEEEEAYGWMDF
modifications: N-terminal pyroglutamate (Z); C-terminal phenylalanine amide
notes: Synthetic peptide bought from Bachem; Also tested with 1 uM DFO or with 8 moles Bi3+ per mole; also called G17
**Q.** B1 was tested. Which inositol phosphate turnover [2] did it give?
**A.** Its inositol phosphate turnover is 4 fold.

**Q.** And the “% Maximum Binding” value [3]?
**A.** Its value is 100%.

**Q.** What about the “% Maximum Binding” value [4] of the same binder?
**A.** Its value is 94.2%.

B2: GamideE7A (peptide)
peptide: [pGlu]GPWLEAEEEAYGWMDF-NH2
modifications: ends and bridges not checked
notes: Gamide mutant with Glu7 replaced by Ala; Synthesised by Auspep
**Q.** Which results are given for B2?
**A.** ratio IC50 GamideE7A/IC50 Gamide [5]: 2.4; IC50 [6]: 3.1 nM; ratio IC50 GamideE7A/IC50 Gamide [7]: 1.4; IC50 [8]: 25.1 nM; % Maximum Binding [3]: 96.7%; IC50 [9]: 37 nM; % Maximum Binding [4]: 92%

**Q.** EEEEEA [hexapeptide E5A] was tested. Which “ED50 (nM), proliferation of IMGE cells” value [1] did it give?
**A.** Its value is 0.5 nM.

B3: GamideE8,9A (peptide)
peptide: [pGlu]GPWLEEAAEAYGWMDF-NH2
modifications: ends and bridges not checked
notes: Gamide mutant with Glu8 and Glu9 replaced by Ala; Synthesised by Auspep
**Q.** With B3 as the binder, how does the “ratio IC50 GamideE8,9A/IC50 Gamide” value [5] read?
**A.** Its value is 2.2.

**Q.** And the IC50 [6]?
**A.** The IC50 was 2.8 nM.

**Q.** What about the “ratio IC50 GamideE8,9A/IC50 Gamide” value [7] of the same binder?
**A.** The value was 4.1.

**Q.** And the IC50 [8]?
**A.** The IC50 was 58.2 nM.

**Q.** What about the “% Maximum Binding” value [3] of the same binder?
**A.** The value was 97.8%.

**Q.** What about the IC50 [9] of the same binder?
**A.** Its IC50 is 112 nM.

**Q.** And the “% Maximum Binding” value [4]?
**A.** Its value is 98.4%.

**Q.** Which “ED50 (nM), proliferation of IMGE cells” value [1] does the source give for LEEEEE [hexapeptide LE5] here?
**A.** Its value is 0.9 nM.

**Q.** For EEEEEAY [heptapeptide E5AY], which “ED50 (nM), proliferation of IMGE cells” value [1] is on record?
**A.** Its value is 1.1 nM.
